Assays:
[1] = target: T1, human TIM-3 (T-cell immunoglobulin mucin receptor 3) (human, UniProt Q8TDQ0 22-202, limits assumed); test: ratio of KD at 37 C to KD at 25 C, SPR or Octet
T1 sequence (looked up): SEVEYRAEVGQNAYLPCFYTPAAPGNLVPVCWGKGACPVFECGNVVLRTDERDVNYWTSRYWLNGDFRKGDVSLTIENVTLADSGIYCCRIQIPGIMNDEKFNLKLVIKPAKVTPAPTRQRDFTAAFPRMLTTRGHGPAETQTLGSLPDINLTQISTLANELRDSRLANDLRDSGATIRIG
Text: (§1) In one typical example, the inventors prepared antibodies using the above HC and LC sequences with matching preceding numbers and tested the so prepared antibodies for TIM3 binding. […] All values are ×10⁻⁹M. anti-TIM-3 IgG1 antibodies were captured on the chip surface using anti-human Fc antibody (SPR) or AHC sensor (Octet), and human TIM-3 was the analyte.

[2] = target: T1, human TIM-3 (T-cell immunoglobulin …); test: SPR (Pioneer FE) or Octet (Red96e), IgG1 captured by anti-human Fc / AHC sensor, human TIM-3 analyte, 25 C
Text: as §1

[3] = target: T1, human TIM-3 (T-cell immunoglobulin …); test: SPR (Pioneer FE) or Octet (Red96e), IgG1 captured by anti-human Fc / AHC sensor, human TIM-3 analyte, 37 C
Text: as §1

Row | Binder | KD difference between 25° C. and 37° C. (fold) [1] [fold] | Kd [2] [nM] | Kd [3] [nM]
1 | anti-TIM-3 IgG1 antibody 64-15 (antibody, V domains shown, human IgG1; also called aTIM-3 IgG1 64-15) VH: EVQLVESGGGLVQPGGSLRLSCAASGFTFSSYYMHWVRQAPGKGLEWVSGISGSGGSTYYADSVKGRFTISRDNSKNTLYLQMNSLRAEDTAVYYCARGRGAWPFTRVVAFDVWGQGTLVTVSS VL: not shown | 7.61 | 0.71 | 5.4
2 | anti-TIM-3 IgG1 antibody 64-31 (antibody, V domains shown, human IgG1; The printed HC begins with M before EVQL; also called aTIM-3 IgG1 64-31) VH: EVQLVESGGGLVQPGGSLRLSCAASGFTFSAYAMHWVRQAPGKGLEWVSAINGNGGRTYYADSVKGRFTISRDNSKNTLYLQMNSLRAEDTAVYYCARDLTRTVPFAFDVWGQGTLVTVSS VL: not shown | 3.51 | 10.4 | 36.5
3 | anti-TIM-3 IgG1 antibody 64-6 (antibody, V domains shown, human IgG1; also called aTIM-3 IgG1 64-6) VH: EVQLVESGGGLVQPGGSLRLSCAASGFTFSRYAMHWVRQAPGKGLEWVSAISGSGGYTYYADSVKGRFTISRDNSKNTLYLQMNSLRAEDTAVYYCARDRHWVLSAFDVWGQGTLVTVSS VL: not shown | 5.43 | 0.46 | 2.5
4 | anti-TIM-3 IgG1 antibody 66-6 (antibody, V domains shown, human IgG1; The printed HC begins with M before EVQL; also called aTIM-3 IgG1 66-6) VH: EVQLVESGGGLVQPGGSLRLSCAASGFTFSKYAMHWVRQAPGKGLEWVSAISGSGGSTYYADSVKGRFTISRDNSKNTLYLQMNSLRAEDTAVYYCARDLDYRFSGFDVWGQGTLVTVSS VL: DIQMTQSPSSLSASVGDRVTITCQASQDISNYLNWYQQKPGKAPKLLIYDASNLETGVPSRFSGSGSGTDFTFTISSLQPEDIATYYCQQFAAIPLTFGQGTKVEIKR | 4.15 | 1.69 | 7.01
5 | anti-TIM-3 IgG1 antibody 64-32 (antibody, V domains shown, human IgG1; The printed HC begins with M before EVQL; also called aTIM-3 IgG1 64-32) VH: EVQLVESGGGLVQPGGSLRLSCAASGFTFSKYAMHWVRQAPGKGLEWVSAISGSGGYTYYADSVKGRFTISRDNSKNTLYLQMNSLRAEDTAVYYCARDLDFRIVGFDVWGQGTLVTVSS VL: DIQMTQSPSSLSASVGDRVTITCQASQDISNYLNWYQQKPGKAPKLLIYDASNLETGVPSRFSGSGSGTDFTFTISSLQPEDIATYYCQQFNTVPLTFGQGTKVEIKR | 2.36 | 0.39 | 0.92
6 | anti-TIM-3 IgG1 antibody 64-39 (antibody, V domains shown, human IgG1; The printed HC begins with M before EVQL; also called aTIM-3 IgG1 64-39) VH: EVQLVESGGGLVQPGGSLRLSCAASGFTFSRYAMHWVRQAPGKGLEWVSGISGSGGGTYYADSVKGRFTISRDNSKNTLYLQMNSLRAEDTAVYYCARDLDYRVSGFDVWGQGTLVTVSS VL: not shown | 4.18 | 1.53 | 6.39
